Key:
[1] = biological target: T1, MBP-Ltl1 (Tetrahymena thermophila) (UniProt I7MGR7); test: EMSA; settings: EMSA as in Carle et al. (ref 20), binding buffer and temperature not given; probes annealed in 10 mM Tris pH 7.5, 5% glycerol, 100 mM KCl; protein dialyzed in …
T1 sequence: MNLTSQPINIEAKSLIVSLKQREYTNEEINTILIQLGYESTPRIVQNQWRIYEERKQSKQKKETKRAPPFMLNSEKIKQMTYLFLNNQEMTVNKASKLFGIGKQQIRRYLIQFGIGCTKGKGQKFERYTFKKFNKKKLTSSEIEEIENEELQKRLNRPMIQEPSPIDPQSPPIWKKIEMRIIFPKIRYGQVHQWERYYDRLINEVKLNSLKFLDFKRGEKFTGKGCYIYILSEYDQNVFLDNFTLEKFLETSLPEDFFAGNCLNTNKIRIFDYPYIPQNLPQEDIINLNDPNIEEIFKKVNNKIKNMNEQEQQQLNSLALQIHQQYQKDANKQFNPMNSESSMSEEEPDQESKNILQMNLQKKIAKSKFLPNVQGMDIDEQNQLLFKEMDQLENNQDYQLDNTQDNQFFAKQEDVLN

MBP-Ltl1 [2] = biological target: T2, MBP-Ltl1 (Tetrahymena thermophila, UniProt I7MGR7 1-417); test: EMSA; EMSA as in Carle et al. (ref 20), binding buffer and temperature not given; probes annealed in 10 mM Tris pH 7.5, 5% glycerol, 100 mM KCl; protein dialyzed in 50 mM Tris pH 7.5, 100 mM KCl, 10% glycerol, 1 mM MnSO4, 1 mM MgCl2, 1 mM ZnSO4; settings: protein: recombinant; MBP (pMAL fusion); label: 5' 32P; blunt
T2 sequence: T1 sequence

MBP-Ltl1 [3] = biological target: T2, MBP-Ltl1; test: EMSA; majority of probe in G-quadruplex form; EMSA as in Carle et al. (ref 20), binding buffer and temperature not given; probes annealed in 10 mM Tris pH 7.5, 5% glycerol, 100 mM KCl; protein dialyzed in 50 mM Tris pH 7.5, 100 mM KCl, 10% glycerol, 1 mM MnSO4, 1 mM MgCl2, 1 mM ZnSO4; settings: protein: recombinant; MBP (pMAL fusion); label: 5' 32P

GAAATTAATATAATTATAATTTTAAACAGTGTAAAACCCAAAAAGCTA (double strand) [R IES left flank -40/-88 ds (R_IES_EMSA_probe2)]
Kd [1]: 350 nM

TTATTTGATTAATTAATTTTATTTACGGTAAAGGTTTATATATTAAGGCCACAATATAC (double strand) [D IES left flank -30/-88 ds (IESD_EMSA_probe1)]
Kd [1]: 350 nM

B1: D IES left flank -70/-120 (IESD_EMSA_L-70/120) (dsDNA)
DNA 1: AAAATTTATATATATTTGAATCCTAAGATTCTGTCTTATTTGATTAATTAA
DNA 2: TTAATTAATCAAATAAGACAGAATCTTAGGATTCAAATATATATAAATTTT
Kd (MBP-Ltl1 [2]): ~43 nM

B2: M IES left flank G4 (M1_A5G5_FW) (structured_DNA)
DNA: TTTATTAATCAAAAAGGGGGTAAATAATAA
Kd (MBP-Ltl1 [3]): ~350 nM

B3: D IES right flank -67/-120 (IESD_EMSA_R-67/120) (dsDNA)
DNA 1: TTTGAATCCTAAGATTCTACTTTATTTAGCATTTTTTATATTAAGTAATTTA
DNA 2: TAAATTACTTAATATAAAAAATGCTAAATAAAGTAGAATCTTAGGATTCAAA
Kd (MBP-Ltl1 [2]): ~42.5 nM
